Experimental data as given in publication PMC5356278, “Identification of residues important for the activity of aldehyde-deformylating oxygenase through investigation into the structure-activity relationship” (BMC Biotechnology, 2017).
Numbering of substitutions follows the chain as printed. Numbers in names are those of the source.

B1: cADO-sll0208 (sll0208) (Synechocystis sp. PCC 6803 substr. Kazusa; L148R) (protein)
chain: MPELAVRTEFDYSSEIYKDAYSRINAIVIEGEQEAYSNYLQMAELLPEDKEELTRLAKMENRHKKGFQACGNNLQVNPDMPYAQEFFAGLHGNFQHAFSEGKVVTCLLIQALIIEAFAIAAYNIYIPVADDFARKITEGVVKDEYTHRNYGEEWLKANFATAKEELEQANKENLPLVWKMLNQVQGDAKVLGMEKEALVEDFMISYGEALSNIGFSTREIMRMSSYGLAGV
notes: full gene in pET-28a(+) (NdeI/XhoI), E. coli BL21(DE3), nickel column; apo enzyme reconstituted with stoichiometric ferrous iron (diferrous form)
B2: cADO-sll0208 (sll0208) (Synechocystis sp. PCC 6803 substr. Kazusa; D49H/N123H) (protein)
chain: B1 chain with D49H, N123H, R148L
notes: as for B1
B3: cADO-sll0208 (sll0208) (Synechocystis sp. PCC 6803 substr. Kazusa) (protein)
chain: B1 chain with R148L
notes: as for B1
B4: cADO-1593 (1593) (Synechococcus elongatus PCC 7942 = FACHB-805; L146T) (protein)
chain: MPQLEASLELDFQSESYKDAYSRINAIVIEGEQEAFDNYNRLAEMLPDQRDELHKLAKMEQRHMKGFMACGKNLSVTPDMGFAQKFFERLHENFKAAAAEGKVVTCLLIQSLIIECFAIAAYNIYIPVADAFARKITEGVVRDEYTHRNFGEEWLKANFDASKAELEEANRQNLPLVWLMLNEVADDARELGMERESLVEDFMIAYGEALENIGFTTREIMRMSAYGLAAV
notes: codon-optimised synthetic gene, E. coli BL21(DE3), nickel column; apo enzyme reconstituted with stoichiometric ferrous iron (diferrous form)
B5: cADO-1593 (1593) (Synechococcus elongatus PCC 7942 = FACHB-805; F150Y/N123H/Q49H) (protein)
chain: B4 chain with Q49H, N123H, T146L, F150Y
notes: as for B4
B6: cADO-1593 (1593) (Synechococcus elongatus PCC 7942 = FACHB-805; W178R) (protein)
chain: B4 chain with T146L, W178R
notes: as for B4
B7: cADO-1593 (1593) (Synechococcus elongatus PCC 7942 = FACHB-805; F150Y) (protein)
chain: B4 chain with T146L, F150Y
notes: as for B4
B8: cADO-1593 (1593) (Synechococcus elongatus PCC 7942 = FACHB-805; F150Y/Q49H) (protein)
chain: B4 chain with Q49H, T146L, F150Y
notes: as for B4

Substrate: CCCCCCC=O
Test: purified protein
Format: biochemical, Synechocystis sp. PCC 6803
Settings: NADH 750 uM, PMS 75 uM, catalase 1 mg/ml, ferrous ammonium sulfate 80 uM, 100 mM HEPES pH 7.2, 100 mM KCl

Row | Protein | Km [µM] | kcat [s⁻¹] | kcat/Km [M⁻¹ s⁻¹]
1 | B1 | 320 ± 80 | 0.0152 ± 0.00133 | 47.3 ± 5
2 | B2 | 380 ± 80 | 0.0138 ± 0.00133 | 36.3 ± 3.33
3 | B3 | 350 ± 70 | 0.00983 ± 0.000667 | 28.2 ± 3.33

Substrate: CCCCCCC=O
Test: purified protein
Format: biochemical, Synechococcus elongatus
Settings: NADH 750 uM, PMS 75 uM, catalase 1 mg/ml, ferrous ammonium sulfate 80 uM, 100 mM HEPES pH 7.2, 100 mM KCl
Remark: another data set of the same source

Row | Protein | Km [µM] | kcat [s⁻¹] | kcat/Km [M⁻¹ s⁻¹]
4 | B4 | 340 ± 80 | 0.0157 ± 0.00133 | 46 ± 5
5 | B5 | 350 ± 20 | 0.0173 ± 0.000333 | 49.5 ± 5
6 | B6 | 340 ± 80 | 0.0302 ± 0.0025 | 88.7 ± 6.67
7 | B7 | 200 ± 40 | 0.0125 ± 0.000667 | 62.5 ± 6.67
8 | B8 | 330 ± 50 | 0.0145 ± 0.000667 | 44 ± 3.33
